Patent US20230383007A1 (BIOSION, published 2023)

T1: full length human TROP2 on 293F-TROP2 cells (clone ID #3A8) (human, UniProt P09758 27-323)
T1 sequence: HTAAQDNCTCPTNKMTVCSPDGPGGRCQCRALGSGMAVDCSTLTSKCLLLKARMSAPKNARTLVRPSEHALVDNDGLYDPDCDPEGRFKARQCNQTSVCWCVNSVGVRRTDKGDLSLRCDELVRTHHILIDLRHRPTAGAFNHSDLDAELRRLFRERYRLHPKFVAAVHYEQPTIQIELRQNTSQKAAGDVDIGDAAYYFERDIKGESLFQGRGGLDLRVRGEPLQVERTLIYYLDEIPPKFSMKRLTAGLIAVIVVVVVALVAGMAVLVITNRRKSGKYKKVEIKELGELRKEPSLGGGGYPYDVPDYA

T2: human TROP2-his protein (human, UniProt P09758 27-274)
T2 construct: also called biotin labeled human TROP2-his protein
T2 sequence: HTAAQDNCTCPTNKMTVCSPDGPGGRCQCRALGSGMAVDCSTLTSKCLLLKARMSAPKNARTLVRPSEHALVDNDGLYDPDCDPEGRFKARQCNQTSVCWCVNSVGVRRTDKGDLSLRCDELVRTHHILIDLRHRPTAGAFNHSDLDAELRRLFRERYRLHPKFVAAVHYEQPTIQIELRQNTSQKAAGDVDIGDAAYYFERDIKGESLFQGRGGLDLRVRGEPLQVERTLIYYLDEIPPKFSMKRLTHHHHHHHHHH

T3: cynomolgus TROP2-his protein (cynomolgus, UniProt P09758 27-272 (human entry), limits assumed)
T3 construct: also called Cyno TROP2-his; Cynomolgus monkey TROP2-his protein
T3 chain: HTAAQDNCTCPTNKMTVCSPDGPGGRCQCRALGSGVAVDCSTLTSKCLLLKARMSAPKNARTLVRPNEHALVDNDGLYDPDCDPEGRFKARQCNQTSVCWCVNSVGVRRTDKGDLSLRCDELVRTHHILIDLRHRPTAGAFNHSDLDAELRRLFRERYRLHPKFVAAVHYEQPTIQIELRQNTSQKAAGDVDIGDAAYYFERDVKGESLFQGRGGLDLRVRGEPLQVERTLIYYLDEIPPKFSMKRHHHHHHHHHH


Tests used:
[1] = target: T1, full length human TROP2 on 293F-TROP2 …; assay: cell based binding FACS (MFI) on 293F-TROP2 cells expressing human TROP2; unit taken from the x axis (nM)
Experimental: Cells were washed twice with FACS buffer, and added with 100 μL/well R-Phycoerythrin AffiniPure Goat Anti-Human IgG, Fey fragment specific (1:1000 dilution in FACS buffer, Jackson Immunoresearch, Cat #109-115-098). Following an incubation of 40 minutes at 4° C. in dark, cells were washed twice and re-suspended in FACS buffer. Fluorescence was measured using a Becton Dickinson FACS Canto II-HTS equipment, and the MFI (mean fluorescence intensity) was plotted against antibody concentration. Data was analyzed using Graphpad Prism software and EC₅₀ values were reported.

human TROP2-his protein [2] = target: T2, human TROP2-his protein; assay: SPR Biacore; antibody captured on anti-human IgG chip, 40 nM human TROP2-his as analyte
From the text: The purified anti-TROP2 mouse monoclonal antibodies (mAbs) were characterized for binding affinity and binding kinetics by Biacore T200 system (GE healthcare, Pittsburgh, PA, USA). Briefly, goat anti-human IgG (GE healthcare, Cat #BR100839, Human Antibody Capture Kit) was covalently linked to a CM5 chip (carboxy methyl dextran coated chip from GE healthcare #BR100530) via primary amines, using a standard amine coupling kit (GE healthcare, Pittsburgh, PA, USA) provided by Biacore. Un-reacted moieties on the chip (biosensor) surface were blocked with ethanolamine. The anti-TROP2 antibodies of the disclosure and the benchmark at the concentration of 2 μg/ml were respectively flowed onto the chip at a flow rate of 10 μL/min. Then, serially diluted human TROP2-his protein (prepared in-house with SEQ ID NO: 16), or cynomolgus TROP2-his protein (prepared in-house with SEQ ID NO: 19), 2-fold dilution in HBS-EP⁺ buffer (provided by Biacore) starting at 160 nM, were flowed onto the chip at a flow rate of 30 μL/min. The antigen-antibody association kinetics was followed for 2 minutes and the dissociation kinetics was followed for 10 minutes. The association and dissociation curves were fit to a 1:1 Langmuir binding model using BIAcore evaluation software.
For the BIAcore test, cell supernatants containing the 01-9F-Fc variants were respectively flowed onto the chip instead of the purified anti-TROP2 antibodies, at a flow rate of 10 μL/min, and 40 nM human TROP2-his proteins (prepared in-house with SEQ ID NO: 16) in HBS-EP⁺ buffer (provided by Biacore), instead of serially diluted human TROP2-his proteins, were flowed onto the chip at a flow rate of 30 μL/min.

[3] = target: T3, cynomolgus TROP2-his protein; assay: indirect ELISA on cynomolgus TROP2; unit taken from the x axis (nM)
human TROP2-his protein [4] = target: T2, human TROP2-his protein; assay: indirect ELISA, plate coated with human TROP2-his; unit taken from the x axis (Con of mAb, ng/mL)
Experimental: The single domain antibodies of the disclosure were tested in the indirect ELISA for their cross-reaction with cynomolgus TROP2 protein. Briefly, 96-well micro plates were coated with 100 μl 2 μg/ml human TROP2-his protein (prepared in-house with SEQ ID NO: 16) in carbonate/bicarbonate buffer (pH 9.6) overnight at 4° C. ELISA plates were washed once with wash buffer (PBS+0.05% v/v Tween-20, PBST) and then blocked with 200 μl/well blocking buffer (5% w/v non-fatty milk in PBST) for 2 hours at 37° C. Plates were washed 4 times and incubated with 100 μl/well serially diluted anti-TROP2 antibodies of the disclosure or controls (starting at 66.7 nM, 5-fold serial dilution in 2.5% w/v non-fatty milk in PBST) for 40 minutes at 37° C. ELISA plates were washed 4 times again and incubated with Peroxidase AffiniPure F(ab′)₂ Fragment Goat Anti-Human IgG, Fey fragment specific (Jackson Immuno Research, Cat #109-036-098, 1:5000 dilution in PBST buffer, 100 μl/well) for 40 minutes at 37° C. After a final wash, plates were incubated with 100 μl/well TMB (Innoreagents) at room temperature. The reaction was stopped 3-10 minutes later at room temperature with 50 μl/well 1M H₂SO₄, and the absorbance of each well was read on a microplate reader using dual wavelength mode with 450 nm for TMB and 630 nm as the reference wavelength. The OD (450-630) values were plotted against antibody concentration. Data was analyzed using Graphpad Prism software and EC₅₀ values were reported.

Row | Binder | EC50 [1] | Kd (human TROP2-his protein [2]) | koff (human TROP2-his protein [2]) | kon (human TROP2-his protein [2]) | EC50 [3] | EC50 (human TROP2-his protein [4])
1 | single domain antibody 01-9F (VHH) VHH: QVQLVESGGGSVQAGGSLRLSCVVSGLPYERYCVAWFRQGPGKEREGVARILSDGTTSYSDSVKGRFTISKDNAKNTLYLQMNSLKSEDTATYYCAAEAFRPFTPSDGDCTTVLGIDYWGKGTPVTVSS | 0.53 nM | 0.202 nM | 0.000101 s⁻¹ | 502000 M⁻¹ s⁻¹ | 0.107 nM | 0.0208 µg/mL
2 | sacituzumab (benchmark, an analog of sacituzumab, in house made) (antibody, human IgG1, kappa, V domains shown, also called BM; BM1) VH: SVQLQQSGSELKKPGASVKVSCKASGYTFTNYGMNWVKQAPGQGLKWMGWINTYTGEPTYTDDFKGRFAFSLDTSVSTAYLQISSLKADDTAVYFCARGGFGSSYWYFDVWGQGSLVTVSS VL: DIQLTQSPSSLSASVGDRVSITCKASQDVSIAVAWYQQKPGKAPKLLIYSASYRYTGVPDRFSGSGSGTDFTLTISSLQPEDFAVYYCQQHYITPLTFGAGTKVEIKR | 0.706 nM |  |  |  | 0.161 nM | 0.0374 µg/mL
